Data as given in PMC10776578, “Epstein-Barr virus-driven B cell lymphoma mediated by a direct LMP1-TRAF6 complex” (Nature Communications, 2024).

B1: unnamed (parent)
chain 1: DHQIRELTAKMETQSMYVSELKRTIRTLEDKVAEIEAQQCNGIYIWKIGNFGMHLKCQEEEKPVVIHSPGFYTGKPGYKLCMRLHLQLPTAQRCANYISLFVHTMQGEYDSHLPWPFQGTIRLTILDQSEAPVRQNHEEIMDAKPELLAFQRPTIPRNPKGFGYVTFMHLEALRQRTFIKDDTLLVRCEVSTRFDMGSLRREGFQPRSTDAGV
chain 2: LIWMYYHGQRHSDEHHHDDSLPHPQQATDDSGHESDSNSNEGRHHLLVSGAGDGPPLCSQNLGAPGGGPDNGPQDPDNTDDNGPQDPDNTDDNGPHDPLPQDPDNTDDNGPQDPDNTDDNGPHDPLPHSPSDSAGNDGGPPQLTEEVENKGGDQGPPLMTDGGGGHSHDSGHGGGDPHLPTLLLGSSGSGGDDDDPHGPVQLSYYD
B2: unnamed (parent)
chain 1: B1 chain 1
chain 2: GGGPYAQGEDARMLSLVSKTEIEEDSFRQMPTEDEYMDRPSQ

Variants of: B1
Assay: AlphaScreen
Conditions: with partner chain of the complex shown; parent: 100; read off a plot

Variant | percent of parent [%]
chain 1 DHQIRELTAKMETQSMYVSELKRTIRTLEDKVAEIEAQQCNGIYIWKIGNFGMHLKCQEEEKPVVIHSPGFYTGKPGYKLCMALHLQLPTAQRCANYISLFVHTMQGEYDSHLPWPFQGTIRLTILDQSEAPVRQNHEEIMDAKPELLAFQRPTIPRNPKGFGYVTFMHLEALRQRTFIKDDTLLVRCEVSTRFDMGSLRREGFQPRSTDAGV [chain 1 R83A] | 4
chain 1 DHQIRELTAKMETQSMYVSELKRTIRTLEDKVAEIEAQQCNGIYIWKIGNFGMHLKCQEEEKPVVIHSPGFYTGKPGYKLCMRLHLQLPTAQRCANYISLFVHTMQGEYDSHLPWPFQGTIRLTILDQSEAPVRQNHEEIMDAKPELLAFQRPTIPRNPKGAGYVTFMHLEALRQRTFIKDDTLLVRCEVSTRFDMGSLRREGFQPRSTDAGV [chain 1 F162A] | 5

Same assay, conditions: with partner chain of the complex shown; 100 nM His-TRAF6; parent: 100; read off a plot

Variant | percent of parent [%]
chain 2 LIWMYYHGQRHSDEHHHDDSLPHPQQATDDSGHESDSNSNEGRHHLLVSGAGDGPPLCSQNLGAPGGGPDNGPQDPDNTDDNGPQDPDNTDDNGPHDPLPQDPDNTDDNGPQDPDNTDDNGPHDPLPHSPSDSAGNDGGPPQLTEEVENKGGDQGPPLMTDGGGGHSHDSGHGGGDPHLPTLLLGSSGSGGDDDDPHGPVQLAYYD [chain 2 S203A] | 94
chain 2 LIWMYYHGQRHSDEHHHDDSLPHPQQATDDSGHESDSNSNEGRHHLLVSGAGDGPPLCSQNLGAPGGGPDNGPQDPDNTDDNGPQDPDNTDDNGPHDPLPQDPDNTDDNGPQDPDNTDDNGPHDPLPHSPSDSAGNDGGPPQLTEEVENKGGDQGPPLMTDGGGGHSHDSGHGGGDPHLPTLLLGSSGSGGDDDDPHGPVQLSYAD [chain 2 Y205A] | 47
chain 2 V200A | 15
chain 2 LIWMYYHGQRHSDEHHHDDSLPHPQQATDDSGHESDSNSNEGRHHLLVSGAGDGPPLCSQNLGAPGGGPDNGPQDPDNTDDNGPQDPDNTDDNGPHDPLPQDPDNTDDNGPQDPDNTDDNGPHDPLPHSPSDSAGNDGGPPQLTEEVENKGGDQGPPLMTDGGGGHSHDSGHGGGDPHLPTLLLGSSGSGGDDDDPHAPVQLSYYD [chain 2 G198A] | 75
chain 2 LIWMYYHGQRHSDEHHHDDSLPHPQQATDDSGHESDSNSNEGRHHLLVSGAGDGPPLCSQNLGAPGGGPDNGPQDPDNTDDNGPQDPDNTDDNGPHDPLPQDPDNTDDNGPQDPDNTDDNGPHDPLPHSPSDSAGNDGGPPQLTEEVENKGGDQGPPLMTDGGGGHSHDSGHGGGDPHLPTLLLGSSGSGGDDDDPHGPVQASYYD [chain 2 L202A] | 100

Same assay, conditions: with partner chain of the complex shown; 300 nM His-TRAF6; parent: 100; read off a plot

Variant | percent of parent [%]
chain 2 LIWMYYHGQRHSDEHHHDDSLPHPQQATDDSGHESDSNSNEGRHHLLVSGAGDGPPLCSQNLGAPGGGPDNGPQDPDNTDDNGPQDPDNTDDNGPHDPLPQDPDNTDDNGPQDPDNTDDNGPHDPLPHSPSDSAGNDGGPPQLTEEVENKGGDQGPPLMTDGGGGHSHDSGHGGGDPHLPTLLLGSSGSGGDDDDPHGPVQLAYYD [chain 2 S203A] | 88
chain 2 LIWMYYHGQRHSDEHHHDDSLPHPQQATDDSGHESDSNSNEGRHHLLVSGAGDGPPLCSQNLGAPGGGPDNGPQDPDNTDDNGPQDPDNTDDNGPHDPLPQDPDNTDDNGPQDPDNTDDNGPHDPLPHSPSDSAGNDGGPPQLTEEVENKGGDQGPPLMTDGGGGHSHDSGHGGGDPHLPTLLLGSSGSGGDDDDPHGPVQLSYAD [chain 2 Y205A] | 65
chain 2 V200A | 15
chain 2 LIWMYYHGQRHSDEHHHDDSLPHPQQATDDSGHESDSNSNEGRHHLLVSGAGDGPPLCSQNLGAPGGGPDNGPQDPDNTDDNGPQDPDNTDDNGPHDPLPQDPDNTDDNGPQDPDNTDDNGPHDPLPHSPSDSAGNDGGPPQLTEEVENKGGDQGPPLMTDGGGGHSHDSGHGGGDPHLPTLLLGSSGSGGDDDDPHAPVQLSYYD [chain 2 G198A] | 84
chain 2 LIWMYYHGQRHSDEHHHDDSLPHPQQATDDSGHESDSNSNEGRHHLLVSGAGDGPPLCSQNLGAPGGGPDNGPQDPDNTDDNGPQDPDNTDDNGPHDPLPQDPDNTDDNGPQDPDNTDDNGPHDPLPHSPSDSAGNDGGPPQLTEEVENKGGDQGPPLMTDGGGGHSHDSGHGGGDPHLPTLLLGSSGSGGDDDDPHGPVQASYYD [chain 2 L202A] | 98

Same assay, conditions: with partner chain of the complex shown; 1000 nM His-TRAF6; parent: 100; read off a plot

Variant | percent of parent [%]
chain 2 LIWMYYHGQRHSDEHHHDDSLPHPQQATDDSGHESDSNSNEGRHHLLVSGAGDGPPLCSQNLGAPGGGPDNGPQDPDNTDDNGPQDPDNTDDNGPHDPLPQDPDNTDDNGPQDPDNTDDNGPHDPLPHSPSDSAGNDGGPPQLTEEVENKGGDQGPPLMTDGGGGHSHDSGHGGGDPHLPTLLLGSSGSGGDDDDPHGPVQLAYYD [chain 2 S203A] | 90
chain 2 LIWMYYHGQRHSDEHHHDDSLPHPQQATDDSGHESDSNSNEGRHHLLVSGAGDGPPLCSQNLGAPGGGPDNGPQDPDNTDDNGPQDPDNTDDNGPHDPLPQDPDNTDDNGPQDPDNTDDNGPHDPLPHSPSDSAGNDGGPPQLTEEVENKGGDQGPPLMTDGGGGHSHDSGHGGGDPHLPTLLLGSSGSGGDDDDPHGPVQLSYAD [chain 2 Y205A] | 84
chain 2 V200A | 14
chain 2 LIWMYYHGQRHSDEHHHDDSLPHPQQATDDSGHESDSNSNEGRHHLLVSGAGDGPPLCSQNLGAPGGGPDNGPQDPDNTDDNGPQDPDNTDDNGPHDPLPQDPDNTDDNGPQDPDNTDDNGPHDPLPHSPSDSAGNDGGPPQLTEEVENKGGDQGPPLMTDGGGGHSHDSGHGGGDPHLPTLLLGSSGSGGDDDDPHAPVQLSYYD [chain 2 G198A] | 96
chain 2 LIWMYYHGQRHSDEHHHDDSLPHPQQATDDSGHESDSNSNEGRHHLLVSGAGDGPPLCSQNLGAPGGGPDNGPQDPDNTDDNGPQDPDNTDDNGPHDPLPQDPDNTDDNGPQDPDNTDDNGPHDPLPHSPSDSAGNDGGPPQLTEEVENKGGDQGPPLMTDGGGGHSHDSGHGGGDPHLPTLLLGSSGSGGDDDDPHGPVQASYYD [chain 2 L202A] | 98

Variants of: B2
Assay: AlphaScreen
Conditions: with partner chain of the complex shown

Variant | Kd [nM]
chain 2 GGGPYAQGEDARMLSLVSKTEIEEDSFRQMPTQDEYMDRPSQ | 15.6

Same assay, conditions: with partner chain of the complex shown; parent: 100; read off a plot

Variant | percent of parent [%]
chain 1 DHQIRELTAKMETQSMYVSELKRTIRTLEDKVAEIEAQQCNGIYIWKIGNFGMHLKCQEEEKPVVIHSPGFYTGKPGYKLCMALHLQLPTAQRCANYISLFVHTMQGEYDSHLPWPFQGTIRLTILDQSEAPVRQNHEEIMDAKPELLAFQRPTIPRNPKGFGYVTFMHLEALRQRTFIKDDTLLVRCEVSTRFDMGSLRREGFQPRSTDAGV [chain 1 R83A] | 1
